Measurements taken from PMC7954794, “Protein context shapes the specificity of SH3 domain-mediated interactions in vivo” (Nature Communications, 2021).

B1: YHR064C (protein, UniProt P38788 1-538, looked up)
Ribosome-associated complex …: MSSPVIGITFGNTSSSIAYINPKNDVDVIANPDGERAIPSALSYVGEDEYHGGQALQQLIRNPKNTIINFRDFIGLPFDKCDVSKCANGAPAVEVDGKVGFVISRGEGKEEKLTVDEVVSRHLNRLKLAAEDYIGSAVKEAVLTVPTNFSEEQKTALKASAAKIGLQIVQFINEPSAALLAHAEQFPFEKDVNVVVADFGGIRSDAAVIAVRNGIFTILATAHDLSLGGDNLDTELVEYFASEFQKKYQANPRKNARSLAKLKANSSITKKTLSNATSATISIDSLADGFDYHASINRMRYELVANKVFAQFSSFVDSVIAKAELDPLDIDAVLLTGGVSFTPKLTTNLEYTLPESVEILGPQNKNASNNPNELAASGAALQARLISDYDADELAEALQPVIVNTPHLKKPIGLIGAKGEFHPVLLAETSFPVQKKLTLKQAKGDFLIGVYEGDHHIEEKTLEPIPKEENAEEDDESEWSDDEPEVVREKLYTLGTKLMELGIKNANGVEIIFNINKDGALRVTARDLKTGNAVKGEL
B2: YHR114W (protein, UniProt P38822 1-633, looked up)
Protein BZZ1: MSADLSIGNEIKDSFKETHKWVQNNLKWLKDIEQFYRERAKLEKDYSERLSRLSAEYFNKKSSTSVPISVGDTPTTTPGSIEAAGVVAWNEILSQTDMISKDHDQLSTDFENHVANQLSGLFTKLDMTLSKINGFNNDMVNKKDNIYHELEKAKKDYDEACSTMEMARNRYTKASNDRNKKKLDEKEMEMNKCKNEYLIKINQANRTKDKYYFQDVPEVLDLLQDVNEAKTLFLNDLWLKAASVENDLGANVSKRLQAANSVVKQNKPSLNTAIFIKHNLKNWKEPQDFVYKPSPVWHDDEKFAVPSSLEVEDLRIKLAKAENDYNSLQDKTQNELSKLSTLNKIKHEMKTNEDNINATKFYDTLKEYLNVVSPFTSHETLKLQAEVQIESIQNNVPEEYDLSTDNIDLSKTKKKSGIFSKFKHNILNVDSKPSSGGSTGNGNGGPLHITSLFNTSRRTRLGSAPNNAGEDSDNNSIRTTSTNNTKKTTQNSSDDGKNKVLYAYVQKDDDEITITPGDKISLVARDTGSGWTKINNDTTGETGLVPTTYIRISSAATVKANDRGPAPEVPPPRRSTLPVRTMEAIYAYEAQGDDEISIDPGDIITVIRGDDGSGWTYGECDGLKGLFPTSYCK
B3: ABP1 V31V (protein, UniProt P15891 2-592, looked up)
Actin-binding protein: ALEPIDYTTHSREIDAEYLKIVRGSDPDTTWLIISPNAKKEYEPESTGSSFHDFLQLFDETKVQYGLARVSPPGSDVEKIIIIGWCPDSAPLKTRASFAANFAAVANNLFKGYHVQVTARDEDDLDENELLMKISNAAGARYSIQTSSKQQGKASTPPVKKSFTPSKSPAPVSKKEPVKTPSPAPAAKISSRVNDNNDDDDWNEPELKERDFDQAPLKPNQSSYKPIGKIDLQKVIAEEKAKEDPRLVQKPTAAGSKIDPSSDIANLKNESKLKRDSEFNSFLGTTKPPSMTESSLKNDDDKVIKGFRNEKSPAQLWAERKAKQNSGNAETKAEAPKPEVPEDEPEGEPDVKDLKSKFEGLAASEKEEEEMENKFAPPPKKSEPTIISPKPFSKPQEPVKAEEAEQPKTDYKKIGNPLPGMHIEADNEEEPEENDDDWDDDEDEAAQPPLPSRNVASGAPVQKEEPEQEEIAPSLPSRNSIPAPKQEEAPEQAPEEEIEEEAEEAAPQLPSRSSAAPPPPPRRATPEKKPKENPWATAEYDYDAAEDNELTFVENDKIINIEFVDDDWWLGELEKDGSKGLFPSNYVSLGN
modifications: synonymous codon change V31
B4: ABP1 D34D (protein, UniProt P15891 2-592, looked up)
Actin-binding protein: B3 Actin-binding protein
modifications: synonymous codon change D34D
B5: ABP1 D32D (protein, UniProt P15891 2-592, looked up)
Actin-binding protein: B3 Actin-binding protein
modifications: synonymous D32D codon change
B6: ABP1 D33D (protein, UniProt P15891 2-592, looked up)
Actin-binding protein: B3 Actin-binding protein
modifications: synonymous D33D codon change

Assays:
Type in all cases: cell-based, Saccharomyces cerevisiae
[1] = system: ABP1; assay: DHFR-PCA on solid medium, bait ABP1 (Fig. 1B); conditions: bait ABP1, label = prey; 2-4 replicates
From the text: (§1) Supplement 41467_2021_21873_MOESM8_ESM.xlsx, sheet "Fig1B" | column: medsize; medrep; Ratio; Score

[2] = system: 575 putative partners (preys) of 22 WT SH3-containing proteins; assay: DHFR-PCA on solid medium, WT and SH3-deleted baits (Fig. 1B); parameters: key to Score: 0: SH3-independent; 1: SH3-dependent PPIs; 2: SH3-inhibited PPIs
Procedure, shortened: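 Interactions scored by DHFR protein-fragment complementation on solid medium using robotic pinning; preys (DHFR F[3] fusions) arrayed in duplicate with control borders. Baits carried C-terminal DHFR F[1,2]-FLAG tags, tested as wild type and as SH3-deleted versions carrying a flexible Gly/Ser stuffer.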

[3] = system: BBC1; assay: DHFR-PCA on solid medium, bait BBC1 (Fig. 1B); conditions: bait BBC1, label = prey; for medrep (log2 median colony size normalized to plate background, PCA score): 2-4 replicates
From the text: as §1

[4] = system: BUD14; assay: DHFR-PCA on solid medium, bait BUD14 (Fig. 1B); conditions: bait BUD14, label = prey
From the text: as §1

[5] = system: BOI2; assay: DHFR-PCA on solid medium, bait BOI2 (Fig. 1B); conditions: bait BOI2, label = prey; 3-8 replicates
From the text: as §1

[6] = system: BEM1-2; assay: DHFR-PCA on solid medium, bait BEM1-2 (Fig. 1B); conditions: bait BEM1-2, label = prey; 2-8 replicates
From the text: as §1

[7] = system: BEM1-1; assay: DHFR-PCA on solid medium, bait BEM1-1 (Fig. 1B); conditions: bait BEM1-1, label = prey
From the text: as §1

[8] = system: BZZ1-1; assay: DHFR-PCA on solid medium, bait BZZ1-1 (Fig. 1B); conditions: bait BZZ1-1, label = prey; 4 replicates
From the text: Supplement 41467_2021_21873_MOESM8_ESM.xlsx, sheet "Fig1B" | column: medsize; medrep; Score

[9] = system: Hua2; assay: Deep mutational scanning of Abp1 SH3, Abp1-Hua2 DHFR-PCA (DMS score); conditions: Abp1-Hua2 DHFR-PCA, MTX2
Procedure, shortened: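 Yeast carrying single-codon Abp1 SH3 variants at the endogenous locus, each paired with a Hua2 or Lsb3 DHFR-fragment partner; binding scored by growth over two successive 72 h PCA selections at 30 °C. Illumina counts before and after selection give the DMS score; independent duplicates.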

[10] = system: Lsb3; assay: Deep mutational scanning of Abp1 SH3, Abp1-Lsb3 DHFR-PCA (DMS score); conditions: Abp1-Lsb3 DHFR-PCA, MTX2
Experimental: Single site mutation libraries were generated by a PCR-based saturation mutagenesis method[50] as described below. The mutagenesis was carried out on the pUC19 plasmid containing the SH3 domain sequence of ABP1 flanked by its homology arms subsequently used in the CRISPR mediated genomic re-integration. We used oligos containing degenerate nucleotides (NNN) to carry out the mutagenesis at each codon of the domain sequence. In the first step of the two-step PCR procedure (short PCR step), an amplicon was generated with an oligo containing the degenerate codon which is positioned within the domain sequence, and another oligo lying outside Abp1 sequence in the plasmid. Short PCR step was carried out with the following settings: 5 min at 95 °C, 35 cycles: 20 s at 98 °C, 15 s at 60 °C, 30 s at 72 °C, and a final extension of 1 min at 72 °C. The amplicon generated in this step was used as a mega primer in the second step (long PCR step) to amplify the whole plasmid. Long PCR step was carried out with the following settings: 5 min at 95 °C, 22 cycles: 20 s at 98 °C, 15 s at 68 °C, 3 min 30 s at 72 °C, and a final extension of 5 min at 72 °C. The long PCR product was digested for 2 h at 37 °C with DpnI. The digestion product was then transformed into E. coli MC1061 competent cells. In order to obtain most of the 64 possible codons, we recovered ~1000 colonies from each plate to retrieve the plasmid single mutant libraries. Saturation mutagenesis was carried out in a codon-position-wise manner. Mutants at each position were stored separately. Library quality control was assessed by amplifying the purified plasmid DNA preparations by PCR followed by Illumina sequencing as described below. The genomic insertion of the mutant libraries (one library per amino acid position) was performed by targeting the stuffer sequence in the ABP1 SH3-deleted strain as described in the strain construction section. ABP1 SH3-deleted yeast competent cells were co-transformed with pCAS containing the stuffer-specific gRNA and PCR amplified ABP1 SH3 single position mutated libraries from the pUC19 preparations. As for the library generation, ~1000 colonies from each plate were retrieved. Glycerol stocks of yeast cells were kept for each position (58 different stocks corresponding to the 58 amino acid positions of Abp1 SH3). The stocks were also validated by Illumina sequencing (see below).
Liquid DHFR-PCA experiments were performed following the generation of the ABP1 SH3 single position mutated yeast strains and were performed in biological independent duplicates. An overnight culture was started in YPD + NAT by adding the same number of cells from each yeast mutant strain (master pool). Then, the master pool and Hua2-DHFR F[3] or Lsb3-DHFR F[3] preys strains were mixed in YPD (2:1) for mating and incubated for 8 h at 30 °C. Diploid cells were selected the first time by transferring the mixture in a YPD + NAT + HPH (OD 0.5) culture for 16 h at 30 °C. The next day, the first diploid selection was transferred in SC complete pH 6.0 + NAT + HPH at 0.5 OD and the culture was grown for 24 h at 30 °C. The validation of the yeast mutant libraries was done the next day with a fraction of the diploid cells (first DHFR-PCA experiment time point without PCA selection, reference condition S2) by amplifying ABP1 SH3 genomic sequence followed by Illumina sequencing as described in the section below. Following the selection, diploid cells OD was read using a TECAN Infinite F200 Pro, and dilutions to 0.1 OD in PCA selection media without agar in a 50 mL tube was done. Tubes were incubated at 30 °C for 72 h (second-time point of the DHFR-PCA experiment, first PCA selection). A fraction of the cells (5U OD) was collected for Illumina sequencing. The cells from the first PCA step were grown for a second PCA selection step using the same procedures. […]

[11] = system: Hua2 and Lsb3; assay: Classification of Abp1 SH3 mutants by DMS scores with Hua2 and Lsb3 (quadrant); conditions: class by DMS scores with Hua2 and Lsb3 (Dest. both, Dest. Hua2, Dest. Lsb3, Neutral)
[12] = only significant differences showed, PPIs completely lost have a ratio of 0.1 and the gained PPIs 2.5

| Molecule | medrep (log2 median colony size normalized to plate background, PCA score) [1] | medrep (log2 median colony size normalized to plate background, PCA score) [3] | medrep (log2 median colony size normalized to plate background, PCA score) [8] | hua2sc (frequencies scaled to the synonymous mutation distribution, DMS score) [9] | HUA2_MTX2 (frequencies normalized to the reference condition) [9] | lsb3sc (frequencies scaled to the synonymous mutation distribution, DMS score) [10] | LSB3_MTX2 (frequencies normalized to the reference condition) [10] | quadrant [11] | further results |
| --- | --- | --- | --- | --- | --- | --- | --- | --- | --- |
| B1 | 4.8359 | 4.121 | 2.391 | – | – | – | – | – | medrep (log2 median colony size normalized to plate background, PCA score) ([2]; bait SLA1-3, DHFR-PCA, label = prey, Replicates 4 (2 for YCR009C, YDR388W, YIL033C)): 4.584; Score ([2]; bait SLA1-3, label = prey): 0; medrep (log2 median colony size normalized to plate background, PCA score) ([4]; 4 replicates): 1.869; Ratio (SH3-deleted/WT medrep) [4, 12]: 0.1; medrep (log2 median colony size normalized to plate background, PCA score) [5]: 2.6006; medrep (log2 median colony size normalized to plate background, PCA score) [6]: 1.993; medrep (log2 median colony size normalized to plate background, PCA score) ([7]; 2-8 replicates): 1.993; Ratio (SH3-deleted/WT medrep) [7, 12]: 0.1 |
| B2 | 3.834 | 1.475 | 4.137 | – | – | – | – | – | Ratio (SH3-deleted/WT medrep) [3, 12]: 0.1 |
| B3 | – | – | – | -0.7307 | 0.882 | -0.4906 | 1.01 | Neutral | – |
| B4 | – | – | – | -0.3883 | 1.224 | -0.3576 | 1.143 | Neutral | – |
| B5 | – | – | – | -0.3604 | 1.252 | -0.4014 | 1.099 | Neutral | – |
| B6 | – | – | – | 0.4122 | 2.025 | 0.1943 | 1.695 | Neutral | – |
